Measurements as given in the DeepSol protein solubility set.

Test: soluble on expression in E. coli; label from the status in PepcDB or PDB records

Sequence	soluble on expression in E. coli
MHDHMITFQLATHFLSRIALRLEYLFKTINEACNESHEVIHRFALKNIIEIVEIVEKPELKSRFIKELIRIEHVLKKANLLNHSELFDDLETQIHVLNHVPGRFSNKIHDDEFLKTLRQIHHPNTKECEFNSPHLVLWFDSDPLMRQKTISQWVSCLKDLEDTVKIYLSLLRGVTQYTPIRANNGFYQHSLSPKSLNHLILLRIDKKLKMIPKIQLGHHSLTIRLYELVTGQEIRDKTIEMEIAFCQI	not soluble
MHECKTVTLRTRPLKGRMMSFYLDYYPGYRDKETMKVIRHESLGIYIYANPRNKREQNFNEVMTEKAEAIRCRRFESVVNERYDFFDKYKLKADFLEYYRKQLRKHDQKWEFVYLHFNNFVHGKCTFEEIDIDLCNKFREYLLSAKKLRRNGRITRNSASGYWSTFRGFLKILYRNGMIKTNVNDFLEKIETEDVMKEALSVEELYKLAETPCKKPILKTASLFSCMTSLRISDILSLCWEDIVDYSAGGKCVHIITQKNKAEDIIPISEEALGLIGYSSEKKGLVFKGLMRSWTQIPMKEWI	not soluble
MHGITIDSGRALDMLASMIEEAEQQYQAHMRETPHYEPASAGEGFVAYGESINSLFQLLHQRNAQRLELIKLGLEDARQRVHDLSNTDTEFAARLGAVE	not soluble
MHHHHHHSSGRENLYFQGASEALKVVARCRPLSRKEEAAGHEQILTMDVKLGQVTLRNPRAAPGELPKTFTFDAVYDASSKQADLYDETVRPLIDSVLQGFNGTVFAYGQTGTGKTYTMQGTWVEPELRGVIPNAFEHIFTHISRSQNQQYLVRASYLEIYQEEIRDLLSKEPGKRLELKENPETGVYIKDLSSFVTKNVKEIEHVMNLGNQTRAVGSTHMNEVSSRSHAIFIITVECSERGSDGQDHIRVGKLNLVDLAGSERQNKAGPNTAGGAATPSSGGGGGGGGSGGGAGGERPKEASKINLSLSALGNVIAALAGNRSTHIPYRDSKLTRLLQDSLGGNAKTIMVATLGPASHSYDESLSTLRFANRAKNIKNKPRVNEDPKDTLLREF	soluble
MHHHHHHSSGRENLYFQGERVFGCDLGEHLLNSGFEVPQVLQSCTAFIERYGIVDGIYRLSGVASNIQRLRHEFDSEHVPDLTKEPYVQDIHSVGSLCKLYFRELPNPLLTYQLYEKFSDAVSAATDEERLIKIHDVIQQLPPPHYRTLEFLMRHLSLLADYCSITNMHAKNLAIVWAPNLLRSKQIESACFSGTAAFMEVRIQSVVVEFILNHVDVLFSGRISMAMQE	soluble
MHHHHHHSSGRENLYFQGNTTKHIILVRHGQYERRYKDDENSKRLTKEGCKQADITGKKLKDILNNKKVSVIYHSDMIRAKETANIISKYFPDANLINDPNLNEGTPYLPDPLPRHSKFDAQKIKEDNKRINKAYETYFYKPSGDEDEYQLVICHGNVIRYFLCRALQIPLFAWLRFSSYNCGITWLVLDDEGSVVLREFGSVSHLPFESVTYF	soluble
MHHHHHHSSGVDLGTENLYFQSGVVTHEQFKAALRMVVDQGDPRLLLDSYVKIGEGSTGIVCLAREKHSGRQVAVKMMDLRKQQRRELLFNEVVIMRDYQHFNVVEMYKSYLVGEELWVLMEFLQGGALTDIVSQVRLNEEQIATVCEAVLQALAYLHAQGVIHRDIKSDSILLTLDGRVKLSDFGFCAQISKDVPKRKSLVGTPYWMAPEVISRSLYATEVDIWSLGIMVIEMVDGEPPYFSDSPVQAMKRLRDSPPPKLKNSHKVSPVLRDFLERMLVRDPQERATAQELLDHPFLLQTGLPECLVPLIQLYRKQTSTC	soluble
MHHHHHHSSGVDLGTENLYFQSMARPATVLGAMEMGRRMDAPTSAAVTRAFLERGHTEIDTAFVYSEGQSETILGGLGLRLGGSDCRVKIDTKAIPLFGNSLKPDSLRFQLETSLKRLQCPRVDLFYLHMPDHSTPVEETLRACHQLHQEGKFVELGLSNYAAWEVAEICTLCKSNGWILPTVYQGMYNAITRQVETELFPCLRHFGLRFYAFNPLAGGLLTGKYKYEDKDGKQPVGRFFGNTWAEMYRNRYWKEHHFEGIALVEKALQAAYGASAPSMTSATLRWMYHHSQLQGAHGDAVILGMSSLEQLEQNLAAAEEGPLEPAVVDAFNQAWHLVAHECPNYFR	soluble
MHHHHHHSSGVDLGTENLYFQSMEEHDSPTEASQPIVEEEETKTFKDLGVTDVLCEACDQLGWTKPTKIQIEAIPLALQGRDIIGLAETGSGKTGAFALPILNALLETPQRLFALVLTPTRELAFQISEQFEALGSSIGVQSAVIVGGIDSMSQSLALAKKPHIIIATPGRLIDHLENTKGFNLRALKYLVMDEADRILNMDFETEVDKILKVIPRDRKTFLFSATMTKKVQKLQRAALKNPVKCAVSS	soluble
MHHHHHHSSGVDLGTENLYFQSMVEDHYEMGEELGSGQFAIVRKCRQKGTGKEYAAKFIKKRRLSSSRRGVSREEIEREVNILREIRHPNIITLHDIFENKTDVVLILELVSGGELFDFLAEKESLTEDEATQFLKQILDGVHYLHSKRIAHFDLKPENIMLLDKNVPNPRIKLIDFGIAHKIEAGNEFKNIFGTPEFVAPEIVNYEPLGLEADMWSIGVITYILLSGASPFLGETKQETLTNISAVNYDFDEEYFSNTSELAKDFIRRLLVKDPKRRMTIAQSLEHSWIKAIRRRNVRGEDSG	soluble
MHHHHHHSSMDDPIGLFVMRPQDGEVTVGGSITFSARVAGASLLKPPVVKWFKGKWVDLSSKVGQHLQLHDSYDRASKVYLFELHITDAQPAFTGGYRCEVSTKDKFDCSNFNLTVHEAM	soluble
MHIMVTQGGLMSLSIVHTRAALGVNAPPITVEVHISKGLPGLTMVGLPETTVKEARDRVRSAIINSGYEYPAKKITINLAPADLPKEGGRYDLPIAIALLAASEQLTANKLDEYELVGELALTGALRGVPGAISSATEAIKSGRKIIVAKDNEDEVGLINGEGCLIADHLQAVCAFLEGKHALERPKPTDAVSRALQHDLSDVIGQEQGKRGLEITAAGGHNLLLIGPPGTGKTMLASRINGLLPDLSNEEALESAAILSLVNAESVQKQWRQRPFRSPHHSASLTAMVGGGAIPGPGEISLAHNGVLFLDELPEFERRTLDALREPIESGQIHLSRTRAKITYPARFQLVAAMNPSPTGHYQGNHNRCTPEQTLRYLNRLSGPFLDRFDLSLEIPLPPPGILSKTVVPGESSATVKQRVMAARERQFKRQNKLNAWLDSPEIRQFCKLESEDAMWLEGTLIHLGLSIRAWQRLLKVARTIADIDQSDIITRQHLQEAVSYRAIDRLLIHLQKLLT	not soluble
MHIRLTLPFYIYPFHFFRGSKMVKIPKSHPRYWSLLYREKIIRGMEEGITAKAGLIAHGRGEAFDYLIGERTIPPAEEAMKVAVAKLLLANHPVISVNGNVAALVPRETVELAKVTRAKLEVNLFYRTEERVKKIAEVLKKTGAKEVLGLNPTKRIPGLESERGKVEEDGIWKADVVLVPLEDGDRTEALVRMGKFVITVDLNPLSRSARMANVTIVDNIIRAYPRMIELAKEMRDYSREELEEIVNNYDNNKILSEVLLHIRRRLEELAKEGLEHHHHHH	not soluble
MHITLRQLEVFAEVLKSGSTTQASVMLALSQSAVSAALTDLEGQLGVQLFDRVGKRLVVNEHGRLLYPRALALLEQAVEIEQLFREDNGAIRIYASSTIGNYILPAVIARYRHDYPQLPIELSVGNSQDVMQAVLDFRVDIGFIEGPCHSTEIISEPWLEDELVVFAAPTSPLARGPVTLEQLAAAPWILRERGSGTRDIVDYLLLSHLPKFEMAMELGNSEAIKHAVRHGLGISCLSRRVIEDQLQAGTLSEVAVPLPRLMRTLWRIHHRQKHLSNALRRFLDYCDPANVPR	not soluble
MHKKLNPKSMKRENKKMVLRYLIESGPHSRVEIARKTGLAQSAIWRIIEELVNEGLVEEKGTATGRRRKAVTYGPTRSFITSIIYNVEVLETLVAVGFLDGAWRIIERFSTPKDFDEFKQRVTSSYENILKSHVLNKNISKVVFSLPGIVNTESKFLIHAPNLGWRNIDFRREFGNLDLEVLVENDSNLSLLAEEFFSQDVKESDVAFFLYFGEGIGGAISVNGKIVRGENFAAGEIGHVVLDVKNGKEVEEFLSISKLVERMEKFVELQGESLDEKFRYIKRLWFSGEKNVKETMEEFLQHVAVVLKNIIYFLNPGVIVLGGVVNDLWDTFGSFIKRELEKITDREIANVLIRDTIFKEISPSLVGGNVLAIEEFLRQIT	not soluble
MHKPCAVIPVYNHETAVPAVVEVLLARGLPCVLVDDASSPQCAAVLEQLAGLDQVFLIRLAINQGKGGAVMAGLREAAQLGFSHALQVDADGQHDLTDVDNFIQHSQAHPEALVCGYPQYDASVPKGRLYARYLTHVWVWINSLSLQIPDSMCGFRVYPLPPTLALLDSVQLGRRMDFDPEILVRLAWRNQPMRWLPTRVHYPQDGLSHFRLFHDNALISKMHAKLFFGMLARLPLILWRRWRPLEHHHHHH	not soluble
MHLPQMGYDRAITVFSPDGRLFQVEYAREAVKRGATAIGIKCKEGVILIADKRVGSKLLEKDTIEKIYKIDEHICAATSGLVADARVLIDRARIEAQINRLTYDIPITVKELAKKICDFKQQYTQYGGVRPFGVSLLIAGVNEVPKLYETDPSGALLEYKATAIGMGRMAVTEFFEKEYRDDLSFDDAMVLGLVAMGLSIESELVPENIEVGYVKVDDRTFKEVSPEELKPYVERANERIRELLKK	soluble
MHLSSSLLLVAAALFALPDGTFECATNGLCGYQPSCAAYSQPRPSCGCASSYGCGSYGCYRLRARGAKSYQPKRGRSRVTVGGSSSEEAREVLRQRMAMERVRRKEQLTSSEELDLVSPSVLRNSKSEQPINPDRAFYECCIDRKLPDACLSKCSFGAFTKPTLQAMYFKQDPCPLDAMKEMQFCAAQGRDHRDCCARNGVTTTLAGPKCLSFCDQRLGRNQQLDMSYVPCFDRFESMKSCFWHDMTRYYKRV	not soluble
MHMEQDVNAALRPAYRHRYLQKGHHHSRNAVVDHQELTEKLNRLTSTSSLGSSLPSLSSLHSNSSIGTMPSAKIGDGSTSSLPMSSAKPMSTQTSEPQLPDVPEPNESLHNKTIDEFQKDQEKCDRLKARKAELEMRLRQKMQELKDVCVEEGDITGEMPVEINDVVLPGDDFPRLKRRVGTAYSIPDELIKADKADKMSQLETDVELHRRIVAAASRLATDKNTNKSVRKKRQKDLQAARLRLNRLEQGLQQMRHSASKPDISSLTSDSSNSWTASNSSGPMLTMAMTKSCPTTPRGSVPDLRNGLDDEKDEFDENVEDRVSRRAPSAISRHSLSQRYSGVSSSSTSSGSDSMGLGLPPRPTSRKSQQQQTTPFDDQLDNPMICEIPPPPSSAAAHPLYENVGYRSTSYRSSYRQAHYPTIQDEHTQRKRAQSAHSISTDNGATGRTSTYSVPLNDAAQKFREYDYDDEEDSTPTMDLPSHLINVRRLTSSISCQAGFATASLDRRYSKLNGGRLSSGGGGSDDVVRQNVTTRITTFPVATSAATVILSGKPYSASELPRFQPPPPVARVTHMPRGSLPPYSSATMGAQSPAPPPNGKLPTNPQMEALLSYYKQQQQQQHQQQSRSAPSQQPKTATIV	not soluble
MHMKLDDITYMNPWWEGKEDYHVKQWEKQKVHWEPKWIREISLKPFSLNFVLGPRQVGKTTGIKLLIQKILEENPPESVLYLNLEILPTYRELLDIIREFQELKKEEGIKTGYIFLDEASSLEGWWRGVKPLIDSGLLENDVITVTGSSSLRVRRDIELFPGRRGGGKTLEVMPLSFPEYARVMGLKKHKLEGSKVIKLFEKYIQTGGFPGSINGFPMEDLLGAYIGEFVRFGKSLEIAKEIFSALIRSAPSATSFRALAEMTSGYSYKVVQDYIEFFRDLYILGMAYLKQGNQVMYRREKKFFFRDPLLAKLFSLWSGTEIGKDALYEWIVQEHVFRKFGEIHYFRNSYEIDIIASDMKIEVKAGKAHRKYPRGVKVLEKEDVPFFLIELYNEDC	soluble
